Results from article PMC10317887, “Hypoglycaemia frequency and physiological response after double or triple doses of once-weekly insulin icodec vs once-daily insulin glargine U100 in type 2 diabetes: a randomised crossover trial” (Diabetologia, 2023).

Experiments:
[1] = system: individuals with type 2 diabetes; assay: Hypoglycaemia awareness question 'Do you feel hypo?' during hypoglycaemia induction; type: in vivo, human; details: subgroup
Protocol: Hypoglycaemia awareness was determined by asking the question, ‘Do you feel hypo?’, to the participant.

adrenaline (epinephrine) = assay: Counterregulatory hormone response: plasma adrenaline (LC-MS); type: in vivo, human; details: for Adrenaline at PG3.0 mmol/l, estimated geometric mean / Adrenaline at PGnadir, estimated geometric mean: plasma, subgroup
Protocol: (§1) Plasma concentrations of glucagon were measured by an enzyme-linked immunosorbent assay (Mercodia AB, Uppsala, Sweden). Plasma concentrations of adrenaline (epinephrine) and noradrenaline (norepinephrine) were measured by liquid chromatography-mass spectrometry (Thermo Fisher Scientific, Dreieich, Germany). Serum concentrations of cortisol and growth hormone were measured by electrochemiluminescent immunoassays (Roche Diagnostics, Mannheim, Germany).

cortisol = assay: Counterregulatory hormone response: serum cortisol (electrochemiluminescent immunoassay); type: in vivo, human; details: for Cortisol at PG3.0 mmol/l, estimated geometric mean / Cortisol at PGnadir, estimated geometric mean: serum, subgroup; for Cortisol at PGnadir, estimated geometric mean: n=19 icodec
Protocol: as §1

growth hormone = assay: Counterregulatory hormone response: serum growth hormone (electrochemiluminescent immunoassay); type: in vivo, human; details: for Growth hormone at PG3.0 mmol/l, estimated geometric mean / Growth hormone at PGnadir, estimated geometric mean: serum, subgroup; for Growth hormone at PGnadir, estimated geometric mean: n=19 icodec
Protocol: as §1

albumin = details: ref [9], [10]; cited from earlier work
Source text: (§2) In addition, the low insulin receptor binding affinity of icodec contributes to its long half-life by reducing the clearance rate, as insulin is mainly cleared by internalisation following binding to and activation of the insulin receptor [9, 10]. In case of excess amounts of icodec throughout the body, e.g ...

insulin receptor = details: ref [9], [10]; cited from earlier work
Source text: as §2

[2] = system: individuals with type 2 diabetes; assay: Vital signs during hypoglycaemia induction; details: for Change in SBP at PG3.0 mmol/l, least-squares mean / Change in pulse at PG3.0 mmol/l, least-squares mean / Change in DBP at PGnadir, least-squares mean / Change in SBP at PGnadir, least-squares mean / Change in pulse at PGnadir, least-squares mean / Change in DBP at PG3.0 mmol/l, least-squares mean: change from baseline, subgroup
Protocol: Hypoglycaemic response assessments were conducted at predefined PG levels during hypoglycaemia development and recovery (Fig. 1b). Hypoglycaemic symptoms score (HSS), hypoglycaemia awareness, counterregulatory hormones, vital signs and cognitive function tests were assessed at baseline (PG5.5 mmol/l), during hypoglycaemia development (PG3.9 mmol/l and PG3.0 mmol/l) and at PGnadir. In addition, counterregulatory hormones and vital signs were assessed during recovery from hypoglycaemia at PG3.0 mmol/l, PG3.9 mmol/l and PG5.5 mmol/l.
Vital signs (diastolic blood pressure, systolic blood pressure and pulse) were measured after ≥5 min of rest in a supine position.
(§3) Changes in HSS, vital signs and cognitive function tests from baseline (PG5.5 mmol/l) to PG3.0 mmol/l and to PGnadir were compared between insulin products at each of the two dose levels using the same approach as described for PGnadir, except that no logarithmic transformation was done and that the baseline value was included as a covariate. Least-squares means, treatment difference and 95% CI were derived.

[3] = system: individuals with type 2 diabetes; assay: Cognitive function: digit symbol substitution test (DSST); details: for Change in DSST at PG3.0 mmol/l, least-squares mean / Change in DSST at PGnadir, least-squares mean: change from baseline, subgroup
Protocol: (§4) Hypoglycaemic response assessments were conducted at predefined PG levels during hypoglycaemia development and recovery (Fig. 1b). Hypoglycaemic symptoms score (HSS), hypoglycaemia awareness, counterregulatory hormones, vital signs and cognitive function tests were assessed at baseline (PG5.5 mmol/l), during hypoglycaemia development (PG3.9 mmol/l and PG3.0 mmol/l) and at PGnadir.
Cognitive function was assessed using the trail making B (TMB) test, the digit symbol substitution test (DSST) and the four-choice reaction time (4CRT) test. In the TMB test from the Halstead Reitan Neuropsychological Battery [16, 17], the participant connects 25 circles distributed on a chart in the correct sequence as quickly as possible. The circles contain a number (1–13) or a letter (A–L), and the correct sequence consists of alternating numbers and letters (i.e. 1–A–2–B–3 etc). The test result is the time needed to complete the task correctly. In the DSST, which is a subtest of the Wechsler Adult Intelligence Scale - Revised [18], nine digits are represented by nine different symbols. During 90 s, the participant is requested to write down the appropriate symbol for as many numbers as possible in a given array. The test result is the number of correct responses. […] In 100 cycles, the participant responds by pressing the corresponding position on a keypad. The test result has two components: percentage of correct answers and the mean response time.
as §3

[4] = system: individuals with type 2 diabetes; assay: Continuous glucose monitoring (CGM) after double and triple doses
Protocol: In addition to self-measured PG, which was performed throughout the trial, and PG measurements performed at the clinical site, continuous glucose monitoring (CGM) was conducted from the first dose of the first treatment period until the end of the second treatment period (Dexcom G6; Dexcom, San Diego, CA, USA). CGM data were visible to the participants and the investigators but were not used for titration of basal insulin dose or for reporting hypoglycaemia.
CGM data were summarised from the time of double or triple dose until the next insulin administration (excluding the period of hypoglycaemia induction experiments), thereby eliminating any confounding effect of other insulin.

[5] = system: individuals with type 2 diabetes; assay: Safety: adverse events and non-induced hypoglycaemic episodes during treatment periods
Source text: Safety assessments during the trial included adverse events (AEs), hypoglycaemic episodes (other than those induced), vital signs (other than those assessed during hypoglycaemia induction), electrocardiograms, physical examinations and clinical laboratory assessments (haematology, biochemistry and urinalysis).
AEs and hypoglycaemic episodes (other than those induced) during the treatment periods were summarised. The end of each treatment period was defined as 7 days after the last icodec dose and 2 days after the last glargine U100 dose. […] Hypoglycaemic episodes were classified as level 1 (PG <3.9 mmol/l and ≥3.0 mmol/l), level 2 (PG <3.0 mmol/l) and level 3 (severe cognitive impairment requiring assistance for recovery) [20].

[6] = system: individuals with type 2 diabetes; assay: Hypoglycaemic symptoms score (HSS, Edinburgh Hypoglycaemia Scale) during hypoglycaemia induction; details: for Change in HSS at PG3.0 mmol/l, least-squares mean: change from baseline PG5.5 mmol/l; for Change in HSS at PG3.0 mmol/l, least-squares mean / Change in HSS at PGnadir, least-squares mean: subgroup; for Change in HSS at PGnadir, least-squares mean: change from baseline
Protocol: as §4
The validated Edinburgh Hypoglycaemia Scale was used to determine hypoglycaemic symptoms, which were classified into 11 different autonomic, neuroglycopenic and non-specific symptoms of hypoglycaemia [14, 15]. The participant scored each of the 11 symptoms on a seven-point scale (1=‘not at all’, while 7=‘a great deal’). The total score was derived as 11 multiplied by the mean score for all symptoms.
as §3

[7] = double dose, n=17 icodec, 15 glargine U100
[8] = double dose, n=20 icodec, 19 glargine U100
[9] = triple dose, n=20 icodec, 28 glargine U100
[10] = triple dose, n=20 icodec, 29 glargine U100
[11] = after double dose: first 2 weeks (icodec) / first 48 h (glargine U100), participants with clinically significant hypoglycaemia during induction
[12] = after triple dose: first week (icodec) / first 48 h (glargine U100), participants with clinically significant hypoglycaemia during induction
[13] = treatment periods, outside hypoglycaemia induction experiments

Substance: insulin icodec
- Proportion of individuals answering 'Yes' to 'Do you feel hypo?' ([1]; double dose, at PG3.0 mmol/l, n=9/17 icodec, 2/15 glargine U100): 52.9%
- Proportion of individuals answering 'Yes' to 'Do you feel hypo?' ([1]; double dose, at PGnadir, n=14/20 icodec, 10/19 glargine U100): 70.0%
- Proportion of individuals answering 'Yes' to 'Do you feel hypo?' ([1]; triple dose, at PG3.0 mmol/l, n=5/20 icodec, 8/28 glargine U100): 25.0%
- Proportion of individuals answering 'Yes' to 'Do you feel hypo?' ([1]; triple dose, at PGnadir, n=9/20 icodec, 15/29 glargine U100): 45.0%
- Adrenaline at PG3.0 mmol/l, treatment ratio (95% CI) icodec vs glargine U100 (adrenaline (epinephrine); double dose): 0.90 (0.54, 1.52)
- Adrenaline at PGnadir, treatment ratio (95% CI) icodec vs glargine U100 (adrenaline (epinephrine); double dose): 0.90 (0.62, 1.30)
- Adrenaline at PG3.0 mmol/l, estimated geometric mean (adrenaline (epinephrine); [7]): 476.7 pmol/L
- Adrenaline at PGnadir, estimated geometric mean (adrenaline (epinephrine); [8]): 530.4 pmol/L
- Adrenaline at PG3.0 mmol/l, treatment ratio (95% CI) icodec vs glargine U100 (adrenaline (epinephrine); triple dose): 2.54
- Adrenaline at PGnadir, treatment ratio (95% CI) icodec vs glargine U100 (adrenaline (epinephrine); triple dose): 1.29 (0.88, 1.89)
- Adrenaline at PG3.0 mmol/l, estimated geometric mean (adrenaline (epinephrine); [9]): 793.8 pmol/L
- Adrenaline at PGnadir, estimated geometric mean (adrenaline (epinephrine); [10]): 735.8 pmol/L
- Cortisol at PG3.0 mmol/l, treatment ratio (95% CI) icodec vs glargine U100 (cortisol; double dose): 1.60 (0.91, 2.80)
- Cortisol at PGnadir, treatment ratio (95% CI) icodec vs glargine U100 (cortisol; double dose): 0.99 (0.67, 1.45)
- Cortisol at PG3.0 mmol/l, estimated geometric mean (cortisol; [7]): 245.9 nmol/L
- Cortisol at PGnadir, estimated geometric mean (cortisol; double dose, 19 glargine U100): 296.0 nmol/L
- Cortisol at PG3.0 mmol/l, treatment ratio (95% CI) icodec vs glargine U100 (cortisol; triple dose): 1.64
- Cortisol at PGnadir, treatment ratio (95% CI) icodec vs glargine U100 (cortisol; triple dose): 1.80
- Cortisol at PGnadir, estimated geometric mean (cortisol; triple dose, 29 glargine U100): 355.0 nmol/L
- Cortisol at PG3.0 mmol/l, estimated geometric mean (cortisol; [9]): 201.4 nmol/L
- Growth hormone at PG3.0 mmol/l, treatment ratio (95% CI) icodec vs glargine U100 (growth hormone; double dose): 0.89 (0.46, 1.75)
- Growth hormone at PGnadir, treatment ratio (95% CI) icodec vs glargine U100 (growth hormone; double dose): 1.35 (0.94, 1.94)
- Growth hormone at PG3.0 mmol/l, estimated geometric mean (growth hormone; [7]): 3.6 µg/L
- Growth hormone at PGnadir, estimated geometric mean (growth hormone; double dose, 19 glargine U100): 4.7 µg/L
- Growth hormone at PG3.0 mmol/l, treatment ratio (95% CI) icodec vs glargine U100 (growth hormone; triple dose): 1.54
- Growth hormone at PGnadir, treatment ratio (95% CI) icodec vs glargine U100 (growth hormone; triple dose): 1.10 (0.50, 2.43)
- Growth hormone at PGnadir, estimated geometric mean (growth hormone; triple dose, 29 glargine U100): 3.8 µg/L
- Growth hormone at PG3.0 mmol/l, estimated geometric mean (growth hormone; [9]): 3.7 µg/L
- Binding to albumin (albumin): strong, reversible binding
- Insulin receptor binding affinity (insulin receptor): low
- Change in DBP at PG3.0 mmol/l, treatment difference (95% CI) icodec vs glargine U100 ([2]; double dose): 1.7 (-3.1, 6.4)
- Change in DBP at PGnadir, treatment difference (95% CI) icodec vs glargine U100 ([2]; double dose): 0.5 (-4.0, 4.9)
- Change in SBP at PG3.0 mmol/l, treatment difference (95% CI) icodec vs glargine U100 ([2]; double dose): 3.7 (-4.3, 11.7)
- Change in SBP at PGnadir, treatment difference (95% CI) icodec vs glargine U100 ([2]; double dose): -5.2 (-16.5, 6.1)
- Change in pulse at PG3.0 mmol/l, treatment difference (95% CI) icodec vs glargine U100 ([2]; double dose): -0.9 (-7.4, 5.7)
- Change in pulse at PGnadir, treatment difference (95% CI) icodec vs glargine U100 ([2]; double dose): 0.2 (-5.0, 5.4)
- Change in SBP at PG3.0 mmol/l, least-squares mean [2, 7]: -4.9 mmHg
- Change in pulse at PG3.0 mmol/l, least-squares mean [2, 7]: -1.3 beats/min
- Change in DBP at PGnadir, least-squares mean [2, 8]: -5.4 mmHg
- Change in SBP at PGnadir, least-squares mean [2, 8]: -7.7 mmHg
- Change in pulse at PGnadir, least-squares mean [2, 8]: 1.2 beats/min
- Change in DBP at PG3.0 mmol/l, least-squares mean ([2]; double dose, supine, n=17 icodec, 15 glargine U100): -6.1 mmHg
- Change in DBP at PG3.0 mmol/l, treatment difference (95% CI) icodec vs glargine U100 ([2]; triple dose): 0.8 (-3.4, 5.0)
- Change in DBP at PGnadir, treatment difference (95% CI) icodec vs glargine U100 ([2]; triple dose): 3.6 (-0.8, 8.0)
- Change in SBP at PG3.0 mmol/l, treatment difference (95% CI) icodec vs glargine U100 ([2]; triple dose): 0.7 (-6.6, 8.0)
- Change in SBP at PGnadir, treatment difference (95% CI) icodec vs glargine U100 ([2]; triple dose): 3.9 (-2.2, 10.0)
- Change in pulse at PG3.0 mmol/l, treatment difference (95% CI) icodec vs glargine U100 ([2]; triple dose): 0.8 (-4.4, 5.9)
- Change in pulse at PGnadir, treatment difference (95% CI) icodec vs glargine U100 ([2]; triple dose): 0.5 (-4.8, 5.7)
- Change in DBP at PG3.0 mmol/l, least-squares mean [2, 9]: -2.4 mmHg
- Change in SBP at PG3.0 mmol/l, least-squares mean [2, 9]: -0.9 mmHg
- Change in pulse at PG3.0 mmol/l, least-squares mean [2, 9]: 3.1 beats/min
- Change in DBP at PGnadir, least-squares mean [2, 10]: -1.1 mmHg
- Change in SBP at PGnadir, least-squares mean [2, 10]: 1.8 mmHg
- Change in pulse at PGnadir, least-squares mean [2, 10]: 2.8 beats/min
- Change in DSST at PG3.0 mmol/l, treatment difference (95% CI) icodec vs glargine U100 ([3]; double dose): 1.2 (-3.1, 5.5)
- Change in DSST at PGnadir, treatment difference (95% CI) icodec vs glargine U100 ([3]; double dose): 0.6 (-3.7, 4.9)
- Change in DSST at PG3.0 mmol/l, least-squares mean ([3]; double dose, n=16 icodec, 15 glargine U100): -5.4 number of correct responses
- Change in DSST at PGnadir, least-squares mean ([3]; double dose, n=18 icodec, 18 glargine U100): -6.7 number of correct responses
- Change in DSST at PG3.0 mmol/l, treatment difference (95% CI) icodec vs glargine U100 ([3]; triple dose): 0.5 (-3.3, 4.3)
- Change in DSST at PGnadir, treatment difference (95% CI) icodec vs glargine U100 ([3]; triple dose): -2.2 (-6.8, 2.5)
- Change in DSST at PGnadir, least-squares mean ([3]; triple dose, n=19 icodec, 29 glargine U100): -9.1 number of correct responses
- Change in DSST at PG3.0 mmol/l, least-squares mean [3, 9]: -5.5 number of correct responses
- Percentage time spent with glucose <3.9 mmol/l (CGM), mean±SD ([4]; after double dose: first 2 weeks (icodec) / first 48 h (glargine U100), all participants): 0.99±2.12%
- Percentage time spent with glucose <3.0 mmol/l (CGM), mean±SD ([4]; after double dose: first 2 weeks (icodec) / first 48 h (glargine U100), all participants, induction period excluded): 0.15±0.44%
- Percentage time spent with glucose <3.0 mmol/l (CGM), mean±SD [4, 11]: 0.21±0.45%
- Percentage time spent with glucose <3.9 mmol/l (CGM), mean±SD [4, 11]: 1.63±2.75%
- Percentage time spent with glucose <3.9 mmol/l (CGM), mean±SD ([4]; after triple dose: first week (icodec) / first 48 h (glargine U100), all participants): 1.56±3.54%
- Percentage time spent with glucose <3.0 mmol/l (CGM), mean±SD ([4]; after triple dose: first week (icodec) / first 48 h (glargine U100), all participants, induction period excluded): 0.29±1.24%
- Percentage time spent with glucose <3.0 mmol/l (CGM), mean±SD [4, 12]: 0.56±1.70%
- Percentage time spent with glucose <3.9 mmol/l (CGM), mean±SD [4, 12]: 2.67±4.71%
- Number of level 2 hypoglycaemic episodes ([5]; from end of hypoglycaemia induction experiment until 1 week after triple dose): six episodes in five individuals
- Number of level 2 hypoglycaemic episodes ([5]; from end of hypoglycaemia induction experiment until 2 weeks after double dose): four episodes in three individuals
- Duration of level 2 hypoglycaemic episodes, mean±SD ([5]; over both doses, treatment periods, outside induction): 25.3 ± 8.5 min
- AE rate ([5]; treatment periods): 10.9 AEs per participant-year of exposure
- Rate of clinically significant hypoglycaemic episodes (level 2, PG <3.0 mmol/l) [5, 13]: 3.4 episodes per participant-year of exposure
- Severe hypoglycaemic episodes (level 3) [5, 13]: no severe hypoglycaemic episodes
- Number of AEs reported ([5]; treatment periods, exposure 4.8 participant-years icodec, 1.6 glargine U100): 52 AEs
- Change in HSS at PG3.0 mmol/l, treatment difference (95% CI) icodec vs glargine U100 ([6]; double dose): 1.2 (-1.5, 4.0)
- Change in HSS at PGnadir, treatment difference (95% CI) icodec vs glargine U100 ([6]; double dose): -0.3 (-4.0, 3.5)
- Change in HSS at PG3.0 mmol/l, least-squares mean [6, 7]: 1.8
- Change in HSS at PGnadir, least-squares mean [6, 8]: 6.0
- Change in HSS at PGnadir, treatment difference (95% CI) icodec vs glargine U100 ([6]; triple dose): 0.5 (-2.7, 3.6)
- Change in HSS at PG3.0 mmol/l, least-squares mean [6, 9]: 2.2
- Change in HSS at PGnadir, least-squares mean [6, 10]: 5.4
- Change in HSS at PG3.0 mmol/l, treatment difference (95% CI) icodec vs glargine U100 ([6]; triple dose, listed as Insulin icodec): -0.4 (-2.6, 1.8)
- Change in HSS at PG3.0 mmol/l, treatment difference (95% CI) icodec vs glargine U100 ([6]; triple dose, listed as icodec): −0.4
